Measurements reported in paper PMC8837617.

Biological target: MAPK ERK2 (human), P28482
Assay: FP
Conditions: modification not given

Sequence of MAPK ERK2 (human), P28482 (P28482 whole entry): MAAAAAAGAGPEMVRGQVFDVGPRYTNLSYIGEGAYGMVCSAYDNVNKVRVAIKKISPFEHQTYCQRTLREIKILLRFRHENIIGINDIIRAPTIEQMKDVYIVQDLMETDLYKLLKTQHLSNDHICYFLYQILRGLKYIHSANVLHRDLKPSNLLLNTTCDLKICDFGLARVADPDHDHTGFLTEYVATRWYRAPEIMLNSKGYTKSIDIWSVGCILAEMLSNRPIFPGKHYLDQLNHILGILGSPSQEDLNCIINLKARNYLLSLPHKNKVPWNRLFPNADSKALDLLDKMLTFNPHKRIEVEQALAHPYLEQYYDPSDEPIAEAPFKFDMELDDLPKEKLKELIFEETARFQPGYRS

Binder	Ki [µM]
SKGKKRNPGLKIPK [MKK6]	65
QGKRKALKLNFANP [MKK4]	431
